In PMC6319916 (Biochemistry, 2018):

T1: 3-hydroxy-3-methylglutaryl coenzyme A reductase (DaHMGR) (Delftia acidovorans, UniProt A9BQX8)
T1 sequence (A9BQX8 1-429): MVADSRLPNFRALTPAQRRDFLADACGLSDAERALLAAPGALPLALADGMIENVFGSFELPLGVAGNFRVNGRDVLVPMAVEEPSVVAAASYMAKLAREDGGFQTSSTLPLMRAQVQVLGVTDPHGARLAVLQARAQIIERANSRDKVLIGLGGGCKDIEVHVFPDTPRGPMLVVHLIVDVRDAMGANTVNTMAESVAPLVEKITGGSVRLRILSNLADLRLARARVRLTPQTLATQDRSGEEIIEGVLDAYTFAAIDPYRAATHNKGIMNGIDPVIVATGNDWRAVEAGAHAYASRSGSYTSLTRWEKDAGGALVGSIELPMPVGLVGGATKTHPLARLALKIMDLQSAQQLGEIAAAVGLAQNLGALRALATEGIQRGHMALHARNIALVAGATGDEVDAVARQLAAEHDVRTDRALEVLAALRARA


Experiments:
[1] = target: T1, 3-hydroxy-3-methylglutaryl coenzyme A reductase (DaHMGR); assay: X-ray crystal structure; assay type: binding
purified protein = substrate: CC(C)(COP(=O)(O)OP(=O)(O)OC[C@H]1O[C@@H](n2cnc3c(N)ncnc32)[C@H](O)[C@@H]1OP(=O)(O)O)[C@@H](O)C(=O)NCCC(=O)NCCSC(=O)C[C@@](C)(O)CC(=O)O; assay: purified protein; details: NADH

Molecule	X-ray crystal structure (1.49 Å) [1]	Km (purified protein)	kcat (purified protein)	kcat/Km (purified protein)
C[C@@](O)(CCO)CC(=O)O [mevalonate]	in the mevalonate-bound DaHMGR structure, positive difference maps showed density in the active site, representing mevalonate binding	–	–	–
3-hydroxy-3-methylglutaryl coenzyme A reductase (DaHMGR) (Delftia acidovorans SPH-1) (protein) MVADSRLPNFRALTPAQRRDFLADACGLSDAERALLAAPGALPLALADGMIENVFGSFELPLGVAGNFRVNGRDVLVPMAVEEPSVVAAASYMAKLAREDGGFQTSSTLPLMRAQVQVLGVTDPHGARLAVLQARAQIIERANSRDKVLIGLGGGCKDIEVHVFPDTPRGPMLVVHLIVDVRDAMGANTVNTMAESVAPLVEKITGGSVRLRILSNLADLRLARARVRLTPQTLATQDRSGEEIIEGVLDAYTFAAIDPYRAATHNKGIMNGIDPVIVATGNDWRAVEAGAHAYASRSGSYTSLTRWEKDAGGALVGSIELPMPVGLVGGATKTHPLARLALKIMDLQSAQQLGEIAAAVGLAQNLGALRALATEGIQRGHMALHARNIALVAGATGDEVDAVARQLAAEHDVRTDRALEVLAALRARA	–	7.34 ± 0.71 µM	22.3 s⁻¹	3.04e+06 M⁻¹ s⁻¹
